Laboratory results taken from patent publication US20250353908A1 (ARCELLX, published 2025).

T1: CS1-Fc (human, UniProt Q9NQ25 23-226)
T1 construct: also called recombinant human CS1-Fc; CS1-Fc polypeptide; not shown: Fc portion of CS1-Fc
T1 sequence: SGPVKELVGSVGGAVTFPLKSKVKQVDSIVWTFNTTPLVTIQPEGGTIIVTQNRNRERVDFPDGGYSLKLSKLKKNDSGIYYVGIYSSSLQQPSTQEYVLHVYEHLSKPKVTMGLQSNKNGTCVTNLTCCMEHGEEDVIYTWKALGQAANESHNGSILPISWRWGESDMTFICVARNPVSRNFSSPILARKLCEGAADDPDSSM


target: T1, CS1-Fc; experiment: SPR (Biacore), adapter protein DD-GS linker-Q26, CS1-Fc target
Description: One or more of the above discussed methods were used to identify the SEQ ID NO: 41-47, 49-61, 91-93 and 96-106 variant CS1 specific D domains. […] In addition to binding human CS1, the CS1DD03, CSDD006 and CS1DD007 D domains are cross-reactive with cyno/rhesus CS1.

Binder	Kd
CS1DD006-P26(Q26) Adapter (designed binder, Monovalent Adapter: CS1DD006 D domain, GS linker, AFP p26 (Q26); The SPR sentence names only the format DD-GS linker-Q26; also called monovalent CS1DD006-P26(Q26); CS1DD006 adapter protein of the format DD-GS linker-Q26) MGSWAEFFTRLDAIWERLEGLGGSEAELAAFEKEIAAFESELQAYKGKGYPEVETLKFHAAGIRQKLQAYRHNGGGGDGGGGSGGGGSGQESQALAKRSCGLFQKLGEYYLQNAFLVAYTKKAPQLTSSELMAITRKMAATAATCCQLSEDKLLACGEGAADIIIGHLCIRHEMTPVNPGVGQCCTSSYANRRPCFSSLVVDETYVPPAFSDDKFIFHKDLCQAQGVALQTMKQEFLINLVKQKPQITEEQLEAVIADFSGLLEKCCQGQEQEVCFAEEGQKLISKTRAALGV	38 nM
CS1DD007 adapter protein of the format DD-GS linker-Q26 (designed binder) MGSWAEFFTRLDAIWERLEGLGGSEAELAALEKEIAAFESELQAYKGKGYPEVETLKFHAAGIRQKLQAYRHN	23 nM
CS1DD018 adapter protein of the format DD-GS linker-Q26 (designed binder) MGSWDEFNQRLGAFEERLQALGGSEAELAAFEKEIAAFESELQAYKGKGNPEVEFLRWYADGIRWELQAYRHNGGGGDGGGGSGGGGSGQESQALAKRSCGLFQKLGEYYLQNAFLVAYTKKAPQLTSSELMAITRKMAATAATCCQLSEDKLLACGEGAADIIIGHLCIRHEMTPVNPGVGQCCTSSYANRRPCFSSLVVDETYVPPAFSDDKFIFHKDLCQAQGVALQTMKQEFLINLVKQKPQITEEQLEAVIADFSGLLEKCCQGQEQEVCFAEEGQKLISKTRAALGV	40 nM
CS1DD020-P26(Q26) Adapter (designed binder, Monovalent Adapter: CS1DD020 D domain, GS linker, AFP p26 (Q26); The SPR sentence names only the format DD-GS linker-Q26; also called monovalent CS1DD020-P26(Q26); C1DD020 adapter protein of the format DD-GS linker-Q26) MGSWDEFNQRLGAIEERLQALGGSEAELAALEKEIAAFESELQAYKGKGNPEVEFLRWYADGIRWELQAYRHNGGGGDGGGGSGGGGSGQESQALAKRSCGLFQKLGEYYLQNAFLVAYTKKAPQLTSSELMAITRKMAATAATCCQLSEDKLLACGEGAADIIIGHLCIRHEMTPVNPGVGQCCTSSYANRRPCFSSLVVDETYVPPAFSDDKFIFHKDLCQAQGVALQTMKQEFLINLVKQKPQITEEQLEAVIADFSGLLEKCCQGQEQEVCFAEEGQKLISKTRAALGV	18 nM

target: T1, CS1-Fc; experiment: phage ELISA, CS1-Fc captured on anti-human IgG1-Fc, anti-M13-HRP, A450 target / A450 IgG1-Fc
Description: To identify new CS1-specific D domains, a D domain phage library described in Intl. Appl. Pub. No. WO 2016164305 and U.S. Pat. No. 10,662,248 was screened with a CS1-Fc polypeptide following standard protocols. Individual colonies containing phagemid from the CS1 panning output were picked and phage were rescued. To assay target binding by ELISA, 96-well plates were coated with anti-human IgG1-Fc antibody followed by incubation with CS1-Fc or IgG1-Fc. Rescued phage diluted in ELISA blocking buffer was then added to each well. Binding was detected using an HRP-conjugated anti-M13 antibody and the ELISA ratio for each DD sequence was determined as the absorbance at 450 nm for target (i.e., CS1-Fc) divided by that for IgG1-Fc averaged across all screened wells containing that clone.

Binder	ELISA score (ratio of phage binding to CS1-Fc vs IgG-Fc)
CS1DD008 (designed binder) MGSWDEFNQRLGAIEERLQALGGSEAELAAFEKEIAAFESELQAYKGKGNPEVEFLRWYAAGIRWELQAYRHN	19.2 ratio
SEQ ID NO 72 (designed binder) MGSWYEFWHRLTAIEQRLWALGGSEAELAAFEKEIAAFESELQAYKGKGNPEVEDLRSYAAEIRWRLQAYRHN	8.75 ratio
SEQ ID NO 80 (designed binder) MGSWTEFWYRLSAIDLRLEALGGSEAELAAFEKEIAAFESELQAYKGKGNPEVEELRDYAAYIRAELQAYRHN	17.8 ratio
SEQ ID NO 66 (designed binder) MGSWAEFWSRLSAIDERLGALGGSEAELAAFEKEIAAFESELQAYKGKGNPEVEELREYAAEIRRVLQAYRHN	18 ratio
SEQ ID NO 69 (designed binder) MGSWYEFWSRLSAIHVRLEALGGSEAELAAFEKEIAAFESELQAYKGKGNPEVEDLRAYAAFIRSELQAYRHN	16.9 ratio
SEQ ID NO 70 (designed binder) MGSWMEFWHRLTAIDSRLEALGGSEAELAAFEKEIAAFESELQAYKGKGNPEVEDLRQYAASIRKSLQAYRHN	10.5 ratio
SEQ ID NO 71 (designed binder) MGSWSEFWHRLSAIDARLEALGGSEAELAAFEKEIAAFESELQAYKGKGNPEVEDLRAYAAMIRNVLQAYRHN	14 ratio
SEQ ID NO 73 (designed binder) MGSWSEFWHRLSAIDHRLGALGGSEAELAAFEKEIAAFESELQAYKGKGNPEVEELRAYAAEIRRNLQAYRHN	18.7 ratio
SEQ ID NO 74 (designed binder) MGSWSEFWMRLTAIDMRLAALGGSEAELAAFEKEIAAFESELQAYKGKGNPEVEELRDYAAVIRESLQAYRHN	18.3 ratio
SEQ ID NO 77 (designed binder) MGSWSEFWFRLLAIEQRLEALGGSEAELAAFEKEIAAFESELQAYKGKGNPEVEDLRDYAALIREMLQAYRHN	17.8 ratio
SEQ ID NO 78 (designed binder) MGSWAEFWFRLAAIQMRLYALGGSEAELAAFEKEIAAFESELQAYKGKGNPEVEDLRDYAAHIRQELQAYRHN	17.7 ratio
SEQ ID NO 79 (designed binder) MGSWSEFWTRLAAIDMRLNALGGSEAELAAFEKEIAAFESELQAYKGKGNPEVEDLRDYAAQIREELQAYRHN	18.7 ratio
SEQ ID NO 81 (designed binder) MGSWSEFWIRLAAIELRLSALGGSEAELAAFEKEIAAFESELQAYKGKGNPEVEELRDYAAIIRRELQAYRHN	13.8 ratio
SEQ ID NO 82 (designed binder) MGSWSEFWNRLIAIDYRLLALGGSEAELAAFEKEIAAFESELQAYKGKGNPEVEELRDYAAHIRWNLQAYRHN	16.3 ratio
SEQ ID NO 83 (designed binder) MGSWTEFWARLTAIDLRLIALGGSEAELAAFEKEIAAFESELQAYKGKGNPEVEELRDYAAFIRANLQAYRHN	13.4 ratio
SEQ ID NO 68 (designed binder) MGSWYEFWTRLTAIQMRLDALGGSEAELAAFEKEIAAFESELQAYKGKGNPEVEDLRAFAAQIRTHLQAYRHN	13.1 ratio
SEQ ID NO 75 (designed binder) MGSWHEFWTRLTAIQMRLDALGGSEAELAAFEKEIAAFESELQAYKGKGNPEVEDLRAFAAQIRTHLQAYRHN	16 ratio
CS1DD023 (designed binder) MGSWVEFYDRLEAIWQRLEALGGSEAELAAFEKEIAAFESELQAYKGKGNPEVEKLRRHAAGIRMRLQAYRHN	18.8 ratio
SEQ ID NO 76 (designed binder) MGSWEEFQNRLGAIWDRLEALGGSEAELAAFEKEIAAFESELQAYKGKGNPEVESLRWHAAGIRTRLQAYRHN	16.6 ratio
SEQ ID NO 88 (designed binder) MGSWEEFYVRLDAIWERLEALGGSEAELAAFEKEIAAFESELQAYKGKGNPEVEGLRWHAAGIRERLQAYRHN	13.5 ratio
SEQ ID NO 62 (designed binder) MGSWHFFKARLAYIKQGLEALGGSEAELALFEEFIAEFESDLQQYKGKGNPEVEALRKEAAAIRDELQAYRHN	13.5 ratio
SEQ ID NO 84 (designed binder) MGSWIEFGWRLQAIEERLRALGGSEAELAAFEKEIAAFESELQAYKGKGNPEVEVLREWAAEIRWQLQAYRHN	16.3 ratio
SEQ ID NO 85 (designed binder) MGSWNEFNERLGAINHRLRALGGSEAELAAFEKEIAAFESELQAYKGKGNPEVEVLREGAAWIRAELQAYRHN	18.6 ratio
SEQ ID NO 86 (designed binder) MGSWIEFQTRLEAIYQRLDALGGSEAELAAFEKEIAAFESELQAYKGKGNPEVETLRWHAAGIRQYLQAYRHN	6.03 ratio
SEQ ID NO 87 (designed binder) MGSWTEFHNRLWAIYDRLDALGGSEAELAAFEKEIAAFESELQAYKGKGNPEVETLRHHAAGIRRSLQAYRHN	14.7 ratio
SEQ ID NO 89 (designed binder) MGSWSEFNSRLDAIFDRLFALGGSEAELAAFEKEIAAFESELQAYKGKGNPEVEELRSHAANIRASLQAYRHN	19.6 ratio
SEQ ID NO 90 (designed binder) MGSWSEFWIRLDAIRERLWALGGSEAELAAFEKEIAAFESELQAYKGKGNPEVEELRYFAANIRQQLQAYRHN	16.3 ratio
SEQ ID NO 65 (designed binder) MGSWVEFEWRLYAIAGRLEALGGSEAELAAFEKEIAAFESELQAYKGKGNPEVEYLRQGAARIRATLQAYRHN	15.7 ratio
